The values below come from patent EP4184166A1 (FNCT Biotech, Inc., dated 2023).

The target in the experiment is T1, SRC (UniProt P12931 2-536, limits assumed).
T1 construct: whole, on cells; Endogenous intracellular protein in cell lysates or stained cells; also called p-SRC (phosphorylated form)
Nature of the experiment: immunoprecipitation with ICAM-1 Tyr512 mutants.

B1: ICAM-1 Y512A mutant (receptor)
chain: QTSVSPSKVILPRGGSVLVTCSTSCDQPKLLGIETPLPKKELLLPGNNRKVYELSNVQEDSQPMCYSNCPDGQSTAKTFLTVYWTPERVELAPLPSWQPVGKNLTLRCQVEGGAPRANLTVVLLRGEKELKREPAVGEPAEVTTTVLVRRDHHGANFSCRTELDLRPQGLELFENTSAPYQLQTFVLPATPPQLVSPRVLEVDTQGTVVCSLDGLFPVSEAQVHLALGDQRLNPTVTYGNDSFSAKASVSVTAEDEGTQRLTCAVILGNQSQETLQTVTIYSFPAPNVILTKPEVSEGTEVTVKCEAHPRAKVTLNGVPAQPLGPRAQLLLKATPEDNGRSFSCSATLEVAGQLIHKNQTRELRVLYGPRLDERDCPGNWTWPENSQQTPMCQAWGNPLPELKCLKDGTFPLPIGESVTVTRDLEGTYLCRARSTQGEVTRKVTVNVLSPRYEIVIITVVAAAVIMGTAGLSTYLYNRQRKIKKARLQQAQKGTPMKPNTQATPP
notes: Mutant expressed in cells for immunoprecipitation
B1: the binding result is on record as “binds”.

B2: ICAM-1 Y512D mutant (receptor)
chain: QTSVSPSKVILPRGGSVLVTCSTSCDQPKLLGIETPLPKKELLLPGNNRKVYELSNVQEDSQPMCYSNCPDGQSTAKTFLTVYWTPERVELAPLPSWQPVGKNLTLRCQVEGGAPRANLTVVLLRGEKELKREPAVGEPAEVTTTVLVRRDHHGANFSCRTELDLRPQGLELFENTSAPYQLQTFVLPATPPQLVSPRVLEVDTQGTVVCSLDGLFPVSEAQVHLALGDQRLNPTVTYGNDSFSAKASVSVTAEDEGTQRLTCAVILGNQSQETLQTVTIYSFPAPNVILTKPEVSEGTEVTVKCEAHPRAKVTLNGVPAQPLGPRAQLLLKATPEDNGRSFSCSATLEVAGQLIHKNQTRELRVLYGPRLDERDCPGNWTWPENSQQTPMCQAWGNPLPELKCLKDGTFPLPIGESVTVTRDLEGTYLCRARSTQGEVTRKVTVNVLSPRYEIVIITVVAAAVIMGTAGLSTYLYNRQRKIKKDRLQQAQKGTPMKPNTQATPP
notes: as for B1
Take B2: the binding result is recorded as “binds”.
